Biological target: myc-tagged SynDIG4 (wild type), Q6MG82
Test: co-immunoprecipitation (IP: HA, blot: myc), quantified
Conditions: chain shown with the change; HEK293T cells; fourth bar chart of panel D (µ2 FLD vs µ2 ALS); parent: est. 100; read off a plot

Sequence of myc-tagged SynDIG4 (wild type), Q6MG82 (Q6MG82 whole entry): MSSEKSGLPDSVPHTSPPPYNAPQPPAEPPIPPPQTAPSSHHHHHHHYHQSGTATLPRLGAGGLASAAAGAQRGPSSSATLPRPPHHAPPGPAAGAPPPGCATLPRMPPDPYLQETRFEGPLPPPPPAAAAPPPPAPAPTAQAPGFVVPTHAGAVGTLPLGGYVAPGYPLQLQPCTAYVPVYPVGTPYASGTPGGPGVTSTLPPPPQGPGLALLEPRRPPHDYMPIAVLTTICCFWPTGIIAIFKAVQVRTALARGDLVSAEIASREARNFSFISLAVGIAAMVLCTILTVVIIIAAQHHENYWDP

B1: HA-tagged μ2 AP subunit, Q96CW1 FLD→ALS (protein)
chain: MIGGLFIYNHKGEVLISRVYRDDIGRNAVDAFRVNVIHARQQVRSPVTNIARTSFFHVKRSNIWLAAVTKQNVNAAMVFEFLYKMCDVMAAYFGKISEENIKNNFVLIYELLDEILDFGYPQNSETGALKTFITQQGIKSQHQTKEEQSQITSQVTGQIGWRREGIKYRRNELALSVLESVNLLMSPQGQVLSAHVSGRVVMKSYLSGMPECKFGMNDKIVIEKQGKGTADETSKSGKQSIAIDDCTFHQCVRLSKFDSERSISFIPPDGEFELMRYRTTKDIILPFRVIPLVREVGRTKLEVKVVIKSNFKPSLLAQKIEVRIPTPLNTSGVQVICMKGKAKYKASENAIVWKIKRMAGMKESQISAEIELLPTNDKKKWARPPISMNFEVPFAPSGLKVRYLKVFEPKLNYSDHDVIKWVRYIGRSGIYETRC
percent of parent: 50 % µ2
